IntAct's records for PubMed 28587924

B1: Argininosuccinate synthase (Homo sapiens), P00966 (parent)
chain: MSSKGSVVLAYSGGLDTSCILVWLKEQGYDVIAYLANIGQKEDFEEARKKALKLGAKKVFIEDVSREFVEEFIWPAIQSSALYEDRYLLGTSLARPCIARKQVEIAQREGAKYVSHGATGKGNDQVRFELSCYSLAPQIKVIAPWRMPEFYNRFKGRNDLMEYAKQHGIPIPVTPKNPWSMDENLMHISYEAGILENPKNQAPPGLYTKTQDPAKAPNTPDILEIEFKKGVPVKVTNVKDGTTHQTSLELFMYLNEVAGKHGVGRIDIVENRFIGMKSRGIYETPAGTILYHAHLDIEAFTMDREVRKIKQGLGLKFAELVYTGFWHSPECEFVRHCIAKSQERVEGKVQVSVLKGQVYILGRESPLSLYNEELVSMNVQGDYEPTDATGFININSLRLKEYHRLQSKVTAK
partner: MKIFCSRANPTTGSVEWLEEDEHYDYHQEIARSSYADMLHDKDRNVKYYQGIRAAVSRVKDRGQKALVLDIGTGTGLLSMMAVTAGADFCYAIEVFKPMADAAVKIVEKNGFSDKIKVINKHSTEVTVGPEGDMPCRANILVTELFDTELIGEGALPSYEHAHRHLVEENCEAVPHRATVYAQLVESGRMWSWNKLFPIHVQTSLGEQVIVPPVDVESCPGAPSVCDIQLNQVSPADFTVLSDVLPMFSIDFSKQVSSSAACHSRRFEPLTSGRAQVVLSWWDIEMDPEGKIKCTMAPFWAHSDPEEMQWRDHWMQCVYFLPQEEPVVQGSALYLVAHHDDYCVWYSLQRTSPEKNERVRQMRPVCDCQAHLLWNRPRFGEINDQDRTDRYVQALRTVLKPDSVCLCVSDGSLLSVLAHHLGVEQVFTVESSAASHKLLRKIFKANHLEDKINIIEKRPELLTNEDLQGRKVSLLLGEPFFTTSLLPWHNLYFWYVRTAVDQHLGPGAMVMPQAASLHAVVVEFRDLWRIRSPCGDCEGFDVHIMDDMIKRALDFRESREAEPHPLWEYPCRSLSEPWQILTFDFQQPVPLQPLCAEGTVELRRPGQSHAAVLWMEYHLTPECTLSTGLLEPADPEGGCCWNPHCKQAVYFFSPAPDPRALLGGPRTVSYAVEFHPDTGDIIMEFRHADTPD

Key:
anm7_human PRMT7, Q9NVM4 [1] = variants of: B1; details: with anm7_human PRMT7, Q9NVM4
anm7_human PRMT7, Q9NVM4 [2] = variants of: B1; details: with anm7_human PRMT7, Q9NVM4; remark: listed apart in the source

MSSKGSVVLAYSGGLDTSCILVWLKEQGYDVIAYLANIGQKEDFEEARKKALKLGAKKVFIEDVSREFVEEFIWPAIQSSALYEDRYLLGTSLARPCIARKQVEIAQREGAKYVSHGATGKGNDQVRFELSCYSLAPQIKVIAPWRMPEFYNRFKGRNDLMEYAKQHGIPIPVTPKNPWSMDENLMHISYEAGILENPKNQAPPGLYTKTQDPAKAPNTPDILEIEFKKGVPVKVTNVKDGTTHQTSLELFMYLNEVAGKHGVGRIDIVENRFIGMKSRGIYETPAGTILYHAHLGIEAFTMDREVRKIKQGLGLKFAELVYTGFWHSPECEFVRHCIAKSQERVEGKVQVSVLKGQVYILGRESPLSLYNEELVSMNVQGDYEPTDATGFININSLRLKEYHRLQSKVTAK [D296G]
effect of a mutation on the interaction (anm7_human PRMT7, Q9NVM4 [1]): disrupting interaction strength
effect of a mutation on the interaction (anm7_human PRMT7, Q9NVM4 [2]): decreasing interaction strength

MSSKGSVVLAYSGGLDTSCILVWLKEQGYDVIAYLANIGQKEDFEEARKKALKLGAKKVFIEDVSREFVEEFIWPAIQSSALYEDRYLLGTSLARPCIARKQVEIAQREGAKYVSHGATGKGNDQVRFELSCYSLAPQIKVIAPWRMPEFYNRFKGRNDLMEYAKQHGIPIPVTPKNPWSMDENLMHISYEAGILENPKNQAPPGLYTKTQDPAKAPNTPDILEIEFKKGVPVKVTNVKDGTTHQTSLELFMYLNEVAGKHGVGRIDIVENRFIGMKSRGIYETPAGTILYHAHLDIEAFTMDREVRKIKQGLGLKFAELVYTGFWHSPECEFVRHCIAKSQERVEGKVQVSVLKGQVYILGLESPLSLYNEELVSMNVQGDYEPTDATGFININSLRLKEYHRLQSKVTAK [R363L]
effect of a mutation on the interaction (anm7_human PRMT7, Q9NVM4 [1]): disrupting interaction strength
effect of a mutation on the interaction (anm7_human PRMT7, Q9NVM4 [2]): decreasing interaction strength

MSSKGSVVLAYSGGLDTSCILVWLKEQGYDVIAYLANIGQKEDFEEARKKALKLGAKKVFIEDVSREFVEEFIWPAIQSSALYEDRYLLGTSLARPCIARKQVEIAQREGAKYVSHGATGKGNDQVRFELSCYSLAPQIKVIAPWRMPEFYNRFKGRNDLMEYAKQHGIPIPVTPKNPWSMDENLMHISYEAGILENPKNQAPPGLYTKTQDPAKAPNTPDILEIEFKKGVPVKVTNVKDGTTHQTSLELFMYLNEVAGKHGVGRIDIVENRFIGMKSRGIYETPAGTILYHAHLDIEAFTMDREVRKIKQGLGLKFAELVYTGFWHSPECEFVRHCIAKSQERVEGKVQVSVLKGQVYALGRESPLSLYNEELVSMNVQGDYEPTDATGFININSLRLKEYHRLQSKVTAK [I360A]
effect of a mutation on the interaction (anm7_human PRMT7, Q9NVM4 [1]): decreasing interaction strength
